{"source": "patent US20240191188A1", "target": "CD28 on the surface of T cells and PBMCs (human) (UniProt P10747)", "assay": "flow cytometry of live CD3+ cells of the CD28 positive fraction after D-biotin and washing; remaining anti-CD28 Fab monomers were detected with an antibody against the Ig kappa light chain. The same antibody on cells before selection (negative control, no Fab) gives 2.73"}
{"substance": "αCD28 Fab fragment derived from the monoclonal anti-human CD28 antibody CD28.3, heavy chain carboxy-terminally fused to the Twin-Strep-tag (monomeric)", "values": [{"measurement": "% of cells within gate", "result": 5.91, "unit": "%"}]}
